Measured values reported in article PMC8752837, “Structural basis of BAK activation in mitochondrial apoptosis initiation” (Nature Communications, 2022).

What was measured:
[1] = Liposome permeabilization by WT and mutant BAK proteins (autoactivation, or direct activation by BID BH3); format: biochemical; details: absence of BID BH3
Protocol: Human BAK-∆TM-His6 (BAK)[26] spontaneously permeabilizes liposomes above a certain dose (>100 nM, Fig. 1a). In these dye-release assays[43]–[46], BAK is recruited via His-tag to liposomes containing 2.5 µM of the lipid 1,2-dioleoyl-sn-glycero-3-[(N-(5-amino-1-carboxypentyl)iminodiacetic acid)succinyl] (nickel salt), DGS-NTA(Ni).
To probe autoactivation with full-length BAK, we mutated hydrophobic residues at positions (0)−(6) of the BH3 to alanine or arginine, and D83, which forms the conserved salt bridge (s) with R127, to alanine (Fig. 2a). The BH3 residues participate in autoactivation from the ligand side [hydrophobic positions (0)–(5) and D83(s)] and also from the receptor groove side [hydrophobic positions (3)–(5)] (Fig. 2a). Thus, substitutions at positions (3)–(5) should affect receptor and ligand activities and are predicted to impact BAK activation more severely than mutations of positions (0)–(2), which affect only ligand activity. […] In contrast, almost all (2)–(5) and (s) missense mutants were considerably impaired in autoactivation (Fig. 2b and Supplementary Fig. 3a). […] Despite impairment in autoactivation, all missense mutants were directly activated by BID BH3 peptide, although they induced lower level of permeabilization compared to WT BAK (Fig. 2b and Supplementary Fig. 3a).
We performed liposome permeabilization assays as previously described[43]–[46]. […] (nickel salt) [DGS NTA(Ni), 2.5 μM final concentration in each assay] (Avanti Polar Lipids). We prepared 12.5 mM fluorophore; 8-aminonaphthalene-1, 3, 6-trisulfonic acid, disodium salt (ANTS) and 45 mM quencher; p-xylene-bis-pyridiniumbromide (DPX) in LUV buffer (10 mM HEPES pH 6.8, 200 mM KCl and 5 mM MgCl2). We mixed the lipid film in ANTS/DPX solution by vortexing and sonication (~15 min) followed by extrusion through polycarbonate membrane of 2 μm pore size (Avanti Polar lipids) to generate homogenous large unilamellar vesicles (LUVs). We separated LUVs from free ANTS/DPX by S500 size exclusion chromatography and stored them at 4 °C in the dark. We prepared peptide and protein dilutions in 96-well black flat bottom plates (Costar) kept on ice. ANTS release from permeabilized liposomes causes an increase in fluorescence, which we monitored at 37 °C for 90 min using a CLARIOSTAR microplate reader (BMG Labtech) set at excitation and emission wavelengths of 360 and 530 nm, respectively. We normalized the data relative to maximum and minimum fluorescence induced by 3% CHAPS and buffer controls, respectively. We quantified liposome permabilization by integrating area under curve (AUC) of normalized traces based on the Simpson’s equation, and analyzed that data in Excel and GraphPad Prism. AUC measurements reflect the kinetic and extent of liposome permeabilization and provide quantitative means for comparison between different experimental conditions (e.g., BAK mutants with gross or partial variation in activity). Variability in permeabilization of different liposomes is common and our analyses compare among conditions investigated with the same liposomes. Although the absolute permeabilization values may differ, the trends for the same conditions are always very similar between different liposomes.

[2] = tested on: BCL2allKO HCT116 cells reconstituted with Dox-inducible mC-BAK; test: Dox-induced cell death by IncuCyte imaging of SYTOX Green uptake (autoactivation); format: cell-based, human; details: for SYTOX Green +ve counts/confluence AUC of kinetic traces: Fig 3d; for AUC (48 hr) of SYTOX Green counts/confluence: mC-BAK BCL2allKO HCT116 + Dox + qVD, average, N = 3
From the text: For mammalian cell culture experiments, we cloned the full length human BAK cDNA into pCR 2.1 TOPO vector, mutated BAK as needed, and PCR amplified the BAK gene for cloning into the BamHI and NotI sites of pRETROX mCherry vector for retroviral transduction. Amplification and mutagenesis primers are included in Supplementary Table 4. To test direct BAK activation and BAK autoactivation in cells, we produced cells stably expressing mCherry-human BAK (mC-BAK) ± human BID (BID) on a genetic background devoid of the entire BCL-2 family repertoire (all 17 BCL-2 genes), BCL2allKO HCT116, as described by the Xu Luo laboratory. We expressed WT and mutant mC-BAK using the doxycycline (Dox)-based inducible Tet-On 3G retroviral system from the pRetroX-TRE3G-Puro^R in BCL2allKO HCT116 cells expressing the Tet3G from pRetroX-Tet3G-Blast^R. We selected cells with puromycin (2.5 µg/mL) and blasticidin (2 µg/mL) starting at 2 days after retroviral transduction. To enrich for populations of cells that express mC-BAK, we treated cells with low Dox dose (25 ng/mL) and fluorescence-activated cell sorted (FACS) the mCherry positive cells. We performed the enrichment twice before cell death analysis. One caveat of our cellular system is tagging BAK with N-terminal mCherry, which may affect folding efficiency, degradation, and BAK interactome.
We seeded cells in 24-well (100,000 cells/well), 96-well (15,000 cells/well), or 384-well (10,000 cells/well) plates coated with 10 µg/mL fibronectin. After ≥24 h of attachment and recovery, we induced cell death with Dox (up to 1000 ng/mL) and monitored SYTOX Green (25 nM) uptake by Incucyte imaging. This dye marks cells with compromised plasma membrane integrity. mC-BAK expressed before 24 h, which coincided with detectable cell death. We monitored Incucyte imaging for up to 48 h, followed by endpoint FACS analysis to measure the extent of cell death based on SYTOX Green positive cells on FACSCalibur systems (BD Biosciences). As expected, cells with low mCherry fluorescence were refractory to cell death.

[3] = tested on: bak−/− bax−/− HCT116 cells; test: Apoptosis initiated by actinomycin D and TRAIL + CHX in cells constitutively expressing BAK; format: cell-based, human; details: constitutive pMX-BAK-IRES-GFP
From the text: We enriched for GFP positive cell populations by up to four rounds of sorting. Cells were used in apoptosis assays. […]
and doxycycline (Dox)-inducible mC-BAK. d, Representative i mmunoblot for BID and sypro red staining of BCL2allKO HCT116 cells expressing V74A and D83A mC-BAK and BID from n=2 independent experiments. e, Representative immunoblot of bak-/- bax- […]
from n=2 independent experiments . GFP positive cells were sorted three and four times to achieve similar expression levels. […]
human TRAIL and cycloheximide (CHX).
Data are presented as mean + SD for one representative of n=2 experiments each of n=3 technical replicates. g, Experimental […]
BAK (mC-BAK) monitored for 48 hr by IncuCyte imaging uptake of cell-impermeable dye SYTOX Green. AUC for kinetic traces is included. At 48 hr, we quantified percentage of SYTOX Green +ve cells (%) by fluorescence activated cell sorting (FACS). Data are presented as mean + SD from one of n=3 experiments each of n=3

B1: V74A (1): BAK missense mutant, WT-like; in cells as mCherry fusion (protein)
chain: MASGQGPGPPRQECGEPALPSASEEQVAQDTEEVFRSYVFYRHQQEQEAEGVAAPADPEMVTLPLQPSSTMGQAGRQLAIIGDDINRRYDSEFQTMLQHLQPTAENAYEYFTKIATSLFESGINWGRVVALLGFGYRLALHVYQHGLTGFLGQVTRFVVDFMLHHCIARWIAQRGGWVAALNLGNG
modifications: left off: His6, C-terminal, kept
notes: BAK missense mutant, WT-like; in cells as mCherry fusion
autoactivation in liposome permeabilization assays [1]: behave similar to WT BAK
SYTOX Green +ve counts/confluence AUC of kinetic traces ([2]; Dox 6.25 ng/mL): 290.31
SYTOX Green +ve counts/confluence AUC of kinetic traces ([2]; Dox 6.25 ng/mL + qVD): 201.143
SYTOX Green +ve counts/confluence AUC of kinetic traces ([2]; Dox 12.5 ng/mL): 574.561
SYTOX Green +ve counts/confluence AUC of kinetic traces ([2]; Dox 12.5 ng/mL + qVD): 218.508
SYTOX Green +ve counts/confluence AUC of kinetic traces ([2]; Dox 25 ng/mL): 828.325
SYTOX Green +ve counts/confluence AUC of kinetic traces ([2]; Dox 25 ng/mL + qVD): 220.818
SYTOX Green +ve counts/confluence AUC of kinetic traces ([2]; Dox 50 ng/mL): 1653.15
SYTOX Green +ve counts/confluence AUC of kinetic traces ([2]; Dox 50 ng/mL + qVD): 333.116
SYTOX Green +ve counts/confluence AUC of kinetic traces ([2]; Dox 100 ng/mL): 2313.65
SYTOX Green +ve counts/confluence AUC of kinetic traces ([2]; Dox 100 ng/mL + qVD): 342.619
SYTOX Green +ve counts/confluence AUC of kinetic traces ([2]; Dox 500 ng/mL): 2761.33
SYTOX Green +ve counts/confluence AUC of kinetic traces ([2]; Dox 500 ng/mL + qVD): 584.364
SYTOX Green +ve counts/confluence AUC of kinetic traces ([2]; Dox 1000 ng/mL): 2775.53
SYTOX Green +ve counts/confluence AUC of kinetic traces ([2]; Dox 1000 ng/mL + qVD): 699.139
Dox-induced cell death ([2]; IncuCyte SYTOX Green up to 48 h): induces cell death faster than I81A(3) or D83A(s) irrespective of Dox dose
AUC (48 hr) of SYTOX Green counts/confluence ([2]; Dox 100 ng/mL): 79832.2
AUC (48 hr) of SYTOX Green counts/confluence ([2]; Dox 1000 ng/mL): 98530.5
response to apoptotic inducers actinomycin D and TRAIL + CHX [3]: respond similarly
